Assay results: publication PMC5887438 (Nucleic Acids Research, 2018)

Molecular target: C. crescentus σ70 domain 2 (σ70_2, residues 128-487) (Caulobacter crescentus, UniProt P52324 127-486)
Assay: crystal structure

Sequence of C. crescentus σ70 domain 2 (σ70_2, residues 128-487) (P52324 127-486): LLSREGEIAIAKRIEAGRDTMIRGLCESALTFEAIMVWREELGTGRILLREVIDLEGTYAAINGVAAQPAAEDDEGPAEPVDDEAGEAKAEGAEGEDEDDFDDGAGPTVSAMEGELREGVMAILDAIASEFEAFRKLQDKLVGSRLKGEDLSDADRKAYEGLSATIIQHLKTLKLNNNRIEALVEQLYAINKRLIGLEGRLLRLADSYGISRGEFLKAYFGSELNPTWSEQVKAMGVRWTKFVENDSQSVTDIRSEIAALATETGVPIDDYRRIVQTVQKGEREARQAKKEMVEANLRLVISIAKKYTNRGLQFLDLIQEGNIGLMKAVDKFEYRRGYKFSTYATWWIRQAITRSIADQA

stoichiometry N: 1
B1: C. crescentus GcrA-SID (residues 88-173) (domain or fragment, Caulobacter crescentus, UniProt A0A0H3C9J4 88-173, looked up)
chain: VPVAAAPAPLPAFRHEEPGSATVLTLGAHMCKWPIGDPSSEGFTFCGRRSSEGPYCVEHARVAYQPQQTKKKSGGAELARSLRRYI
